Test system: MS2 coat protein
Assay: apparent KD of MS2 coat protein; designed switch direction (-1 OFF switch, 1 ON switch): 1; higher = weaker reporter binding
Procedure, shortened: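 The reported apparent KD is a per-design median over clusters, from curve fits of normalised cluster fluorescence. Protein titrations used SNAP-549-labelled MS2 coat protein, doubled from 0.7 or 1.5 nM to 3 µM, in Tris-HCl pH 7.5 buffer with KCl, MgCl2, BSA, DTT, tRNA and Tween-20, with no input, 200 uM small-molecule ligand, or an oligonucleotide input. The RNA switches were transcribed on Illumina chips by stalled E. coli RNA polymerase.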

[1] = input ligand: microRNA oligo, concentration not stated

## GUACAGAUUAUAGGAUAUCACGUCGAAUAGACGUGAGAAGGAUAAUCACACAUGAAUAUUAAUACAUGAGGAUCACCCAUGUAC [SSNG1/17-A1] (Eterna round: R96, puzzle: Same State NG 1)
Input ligand: FMN 200 uM
  apparent KD of MS2 coat protein: 0.0167 µM
[1]
  apparent KD of MS2 coat protein: 0.0129 µM
Input ligand: none
  apparent KD of MS2 coat protein: 0.0171 µM

## UGUUGUAUUACAGGAUAUCUAUGGUUUUUAUUUAGAGAAGGGUAUUCACAUGAGGAUCACCCAUGUAUAUACGAGGAAGUUGUG [JMF's solution 58] (Eterna round: R96, puzzle: Same State NG 1)
[1]
  apparent KD of MS2 coat protein: 0.0416 µM

## GUCCGUACCACAGGAUAUCCUAGUCAUGAUCUAGGAGAAGGGUGGCCACAUGAGGAUCACCCAUGUGAAGUGCCAGAGGCACGA [MOD Xexeraed] (Eterna round: R96, puzzle: Same State NG 1)
Input ligand: FMN 200 uM
  apparent KD of MS2 coat protein: 0.0352 µM
[1]
  apparent KD of MS2 coat protein: 0.046 µM
Input ligand: none
  apparent KD of MS2 coat protein: 0.0533 µM

## UGGCUCAGACGAGGAUAUGAUCAUGGCGCUUCGGCGCAUACAUGAGGAUCACCCAUGUAAAGUGAUCAGAAGGUGUCUGAGCCU [SSNG2/7-B3] (Eterna round: R96, puzzle: Same State NG 2)
Input ligand: FMN 200 uM
  apparent KD of MS2 coat protein: 0.0115 µM
[1]
  apparent KD of MS2 coat protein: 0.0124 µM
Input ligand: none
  apparent KD of MS2 coat protein: 0.0144 µM

## GAGGGACAGACCAACAUGAGGAUCACCCAUGUCCUCGCAGGUCAGGAUAUCCCGCCAACAGGCGAGGAGAAGGGACGGUGAACC (Eterna round: R96, puzzle: Same State NG 3)
Input ligand: FMN 200 uM
  apparent KD of MS2 coat protein: 0.61 µM
[1]
  apparent KD of MS2 coat protein: 0.672 µM
Input ligand: none
  apparent KD of MS2 coat protein: 0.713 µM

## GGAGCCGGCACCGAGGAUAUUCAUAUUAAAACAUGAGGAUCACCCAUGUAGCUCGAAAGAGCUUGGGAGAAGGCGGAUCGGCUCG [Xeonanis - 29] (Eterna round: R96, puzzle: Same State 2)
Input ligand: FMN 200 uM
  apparent KD of MS2 coat protein: 0.0373 µM
[1]
  apparent KD of MS2 coat protein: 0.322 µM
Input ligand: none
  apparent KD of MS2 coat protein: 0.633 µM

## AGUCCAGCCAAAGCUGGACAAAAGCAUGUACAUGAGGAUCACCCAUGUUCAUGUACAAGCUUUUUGCAAGUCAAAAU [Mat - hsa-mir-208a - Mod of JL - 78] (puzzle: Sensor for hsa-mir-208a)
Eterna round: R95, input ligand: FMN 200 uM
  apparent KD of MS2 coat protein: 0.542 µM
Eterna round: R95, input ligand: microRNA oligo, concentration not stated
  apparent KD of MS2 coat protein: 0.0171 µM
Eterna round: R95, input ligand: none
  apparent KD of MS2 coat protein: 0.433 µM

## UAAUUAAGUCAAGGAUAUCACGUCGAUUAGACGUGAGAAGGUGAUUAAUACAUGAGGAUCACCCAUGUAAUACAUGAAUAAUUA [SSNG1/11-B2] (Eterna round: R96, puzzle: Same State NG 1)
Input ligand: FMN 200 uM
  apparent KD of MS2 coat protein: 0.0371 µM
[1]
  apparent KD of MS2 coat protein: 0.0614 µM
Input ligand: none
  apparent KD of MS2 coat protein: 0.0761 µM

## CCGGUUUAUGGAGGAUAUGGAGCCUUAUUGGCUCCAGAAGGUCAAUAACAUGAGGAUCACCCAUGUCCGGCGGUCAAUAGACCG [Eli NG1ss - 69] (Eterna round: R96, puzzle: Same State NG 1)
Input ligand: FMN 200 uM
  apparent KD of MS2 coat protein: 0.12 µM
[1]
  apparent KD of MS2 coat protein: 0.146 µM
Input ligand: none
  apparent KD of MS2 coat protein: 0.349 µM

## GCGAGCGUACUUGCUACAUGAGGAUCACCCAUGUUUUAUGGACAGGAUAUGGUACCGUUUCGGUACCAGAAGGGUUCACAUGUA [JL SSNG3 3.83] (Eterna round: R96, puzzle: Same State NG 3)
Input ligand: FMN 200 uM
  apparent KD of MS2 coat protein: 0.116 µM
[1]
  apparent KD of MS2 coat protein: 0.15 µM
Input ligand: none
  apparent KD of MS2 coat protein: 0.426 µM

## GCUCGGAUGAUGGCCCACAUGAGGAUCACCCAUGUGCGUGGGCAGGAUAUCUAGAUUAAGGAUGUAGAGAAGGGCCUACCGAGC [SameState NG3 #33] (Eterna round: R96, puzzle: Same State NG 3)
Input ligand: FMN 200 uM
  apparent KD of MS2 coat protein: 0.543 µM
[1]
  apparent KD of MS2 coat protein: 0.14 µM
Input ligand: none
  apparent KD of MS2 coat protein: 0.179 µM

## UGUUGUAUUACAGGAUAUCUAUUGUUUUAAUUUAGAGAAGGGUAUUCACAUGAGGAUCACCCAUGUAUAUACGAGGAAGUUGUG [JMF's solution 76] (Eterna round: R96, puzzle: Same State NG 1)
[1]
  apparent KD of MS2 coat protein: 0.0406 µM

## UGUUAUUAGACAGGAUAUUGAUUGUAAAGUUUUUACAUGAGGAUCACCCAUGUUGUUCAUUCGAACAAGAAGGGUCAAGUUUUU [JR_SSNG2_Sub018] (Eterna round: R96, puzzle: Same State NG 2)
Input ligand: FMN 200 uM
  apparent KD of MS2 coat protein: 0.153 µM
[1]
  apparent KD of MS2 coat protein: 0.0359 µM
Input ligand: none
  apparent KD of MS2 coat protein: 0.137 µM

## UUAUUAUUUACAUGAGGAUCACCCAUGUUUUUAUGUCAGAGACAGGAUAUAGUAGUCUCGUUUUACUAGAAGGGUCUUUUUAUU [JR_SSNG3_Sub017] (Eterna round: R96, puzzle: Same State NG 3)
Input ligand: FMN 200 uM
  apparent KD of MS2 coat protein: 0.0152 µM
[1]
  apparent KD of MS2 coat protein: 0.0189 µM
Input ligand: none
  apparent KD of MS2 coat protein: 0.0221 µM

## CGAUGUGAGUCAGGAUAUGGGUUAUCACUCCACAUGAGGAUCACCCAUGUAAAGAGGCCAAGGAGCCAGAAGGGACAUACAUCU [Zaorso] (Eterna round: R96, puzzle: Same State NG 2)
Input ligand: FMN 200 uM
  apparent KD of MS2 coat protein: 1.52 µM
[1]
  apparent KD of MS2 coat protein: 0.0142 µM
Input ligand: none
  apparent KD of MS2 coat protein: 0.0508 µM
